Results taken from article PMC3145769, “Cyclin A2 Mutagenesis Analysis: A New Insight into CDK Activation and Cellular Localization Requirements” (PLoS ONE, 2011).

Columns and labels:
Assay in all cases: co-IP; anti-Flag M2 affinity gel on extracts of human HEK 293 cells transfected with mouse 3xFlag Cyclin A2 alleles; endogenous partners detected by Western blot; densitometry (ImageQuantTL) normalised to immunoprecipitated Cyclin A2, percent of WT; repeated 3 times
Details in all cases: partners not purified
[1] = target: T1, Cyclin A2 D171A, C-terminally fused to 3 Flag tags (mouse, UniProt P51943 1-422, D171A)
T1 construct: Cyclin A2, mouse; cDNA obtained from NIH3T3 cells by RT-PCR; source: NIH3T3 or HEK 293 cells, transfected, in cell extracts; not shown: 3xFlag, C-terminal, kept

[2] = target: T2, Cyclin A2 L204A, C-terminally fused to 3 Flag tags (mouse, UniProt P51943 1-422, L204A)
T2 construct: Cyclin A2, mouse; cDNA obtained from NIH3T3 cells by RT-PCR; source: NIH3T3 or HEK 293 cells, transfected, in cell extracts; not shown: 3xFlag, C-terminal, kept

[3] = target: T3, Cyclin A2 M200A, C-terminally fused to 3 Flag tags (mouse, UniProt P51943 1-422, M200A)
T3 construct: Cyclin A2, mouse; cDNA obtained from NIH3T3 cells by RT-PCR; source: NIH3T3 or HEK 293 cells, transfected, in cell extracts; not shown: 3xFlag, C-terminal, kept

[4] = target: T4, Cyclin A2 WT, C-terminally fused to 3 Flag tags (mouse, UniProt P51943 1-422)
T4 construct: Cyclin A2, mouse; cDNA obtained from NIH3T3 cells by RT-PCR; Same construct transfected into mouse NIH3T3 (assay a1) and human HEK 293 (assay a2); also called WT Cyclin A2 allele; Flag tagged WT Cyclin A2; source: NIH3T3 or HEK 293 cells, transfected, in cell extracts; not shown: 3xFlag, C-terminal, kept
T4 sequence (P51943 whole entry, the tested form may be a part): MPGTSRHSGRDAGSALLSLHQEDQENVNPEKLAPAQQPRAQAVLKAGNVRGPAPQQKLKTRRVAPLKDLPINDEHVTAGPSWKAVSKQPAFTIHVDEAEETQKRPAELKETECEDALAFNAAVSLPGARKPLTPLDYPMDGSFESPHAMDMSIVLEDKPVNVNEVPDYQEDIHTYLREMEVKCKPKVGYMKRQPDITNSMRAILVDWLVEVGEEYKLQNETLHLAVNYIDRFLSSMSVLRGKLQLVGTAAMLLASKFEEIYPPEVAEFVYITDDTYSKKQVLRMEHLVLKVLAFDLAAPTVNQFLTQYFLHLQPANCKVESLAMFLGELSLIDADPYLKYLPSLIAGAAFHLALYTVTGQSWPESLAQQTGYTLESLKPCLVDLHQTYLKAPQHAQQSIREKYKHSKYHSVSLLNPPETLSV

T2 sequence (P51943 whole entry L204A, the tested form may be a part): as the sequence (P51943 whole entry, the tested form may be a part) above, with L204A counted along it
T1 sequence (P51943 whole entry D171A, the tested form may be a part): as the sequence (P51943 whole entry, the tested form may be a part) above, with D171A counted along it
T3 sequence (P51943 whole entry M200A, the tested form may be a part): as the sequence (P51943 whole entry, the tested form may be a part) above, with M200A counted along it

B1: p107 (endogenous, HEK 293) (natural protein, human (endogenous in HEK 293), UniProt P28749 1-1068, looked up)
chain: MFEDKPHAEGAAVVAAAGEALQALCQELNLDEGSAAEALDDFTAIRGNYSLEGEVTHWLACSLYVACRKSIIPTVGKGIMEGNCVSLTRILRSAKLSLIQFFSKMKKWMDMSNLPQEFRERIERLERNFEVSTVIFKKYEPIFLDIFQNPYEEPPKLPRSRKQRRIPCSVKDLFNFCWTLFVYTKGNFRMIGDDLVNSYHLLLCCLDLIFANAIMCPNRQDLLNPSFKGLPSDFHTADFTASEEPPCIIAVLCELHDGLLVEAKGIKEHYFKPYISKLFDRKILKGECLLDLSSFTDNSKAVNKEYEEYVLTVGDFDERIFLGADAEEEIGTPRKFTRDTPLGKLTAQANVEYNLQQHFEKKRSFAPSTPLTGRRYLREKEAVITPVASATQSVSRLQSIVAGLKNAPSDQLINIFESCVRNPVENIMKILKGIGETFCQHYTQSTDEQPGSHIDFAVNRLKLAEILYYKILETVMVQETRRLHGMDMSVLLEQDIFHRSLMACCLEIVLFAYSSPRTFPWIIEVLNLQPFYFYKVIEVVIRSEEGLSRDMVKHLNSIEEQILESLAWSHDSALWEALQVSANKVPTCEEVIFPNNFETGNGGNVQGHLPLMPMSPLMHPRVKEVRTDSGSLRRDMQPLSPISVHERYSSPTAGSAKRRLFGEDPPKEMLMDKIITEGTKLKIAPSSSITAENVSILPGQTLLTMATAPVTGTTGHKVTIPLHGVANDAGEITLIPLSMNTNQESKVKSPVSLTAHSLIGASPKQTNLTKAQEVHSTGINRPKRTGSLALFYRKVYHLASVRLRDLCLKLDVSNELRRKIWTCFEFTLVHCPDLMKDRHLDQLLLCAFYIMAKVTKEERTFQEIMKSYRNQPQANSHVYRSVLLKSIPREVVAYNKNINDDFEMIDCDLEDATKTPDCSSGPVKEERGDLIKFYNTIYVGRVKSFALKYDLANQDHMMDAPPLSPFPHIKQQPGSPRRISQQHSIYISPHKNGSGLTPRSALLYKFNGSPSKSLKDINNMIRQGEQRTKKRVIAIDSDAESPAKRVCQENDDVLLKRLQDVVSERANH
notes: p107, endogenous protein of human HEK 293 cells, detected by Western blot; source: endogenous, HEK 293 cell extract
percent co-precipitated relative to WT [1]: 95% | percent co-precipitated relative to WT [2]: 5.3% | percent co-precipitated relative to WT [3]: 57.4% | percent co-precipitated relative to WT [4]: 100%
